Assay [1] addresses T1, NRP2 (Homo sapiens, UniProt O60462).
T1 construct: Fc (C); purchased R&D Systems 2215-N2
Nature of the assay: SPR protein-protein interaction, human NRP2 over immobilized protein. It counts as binding. To be noted: NRP2 flowed as analyte (50 nM or 20 nM); running buffer with 5 mM CaCl2. As to the method:
(§1) Protein-Protein Interaction studies. […] SPR experiments were conducted on a Bio-Rad ProteOn XPR36 Protein Interaction Array instrument. Proteins were immobilized on different channels of ProteOn GLC sensor chips through amine coupling. Analyte proteins were flowed over the immobilized proteins. The sensor chip surface was regenerated between each analyte run to remove interacting proteins. Data was double referenced against an interspot (untreated chip surface) and a blank surface (activated and deactivated for amine coupling).
(§2) Studies were performed to confirm the binding specificity of Neuropilin 2 (NRP2) to Fc-HRS(2-60) using orthologous methods to those used in the large scale Retrogenix screening (Example 1). In a series of experiments, Fc-HRS(2-60) and related proteins were immobilized on SPR chips, and NRP2 and related proteins were flowed as analytes. Upon confirmation of the NRP2:Fc-HRS(2-60) interaction, the dependence on divalent cations was tested as NRP2 is known to have Ca^2+ binding sites. The effects of previously characterized NRP2 ligands on the NRP2: Fc-HRS(2-60) interaction was also tested to determine if these known ligands have competitive effects on the Fc-HRS(2-60) interaction.

The next assay addresses T2, rat NRP2 (Rattus norvegicus, UniProt O35276).
T2 construct: Fc (C); His (C); purchased R&D Systems 567-N2
T2 sequence (O35276 23-925): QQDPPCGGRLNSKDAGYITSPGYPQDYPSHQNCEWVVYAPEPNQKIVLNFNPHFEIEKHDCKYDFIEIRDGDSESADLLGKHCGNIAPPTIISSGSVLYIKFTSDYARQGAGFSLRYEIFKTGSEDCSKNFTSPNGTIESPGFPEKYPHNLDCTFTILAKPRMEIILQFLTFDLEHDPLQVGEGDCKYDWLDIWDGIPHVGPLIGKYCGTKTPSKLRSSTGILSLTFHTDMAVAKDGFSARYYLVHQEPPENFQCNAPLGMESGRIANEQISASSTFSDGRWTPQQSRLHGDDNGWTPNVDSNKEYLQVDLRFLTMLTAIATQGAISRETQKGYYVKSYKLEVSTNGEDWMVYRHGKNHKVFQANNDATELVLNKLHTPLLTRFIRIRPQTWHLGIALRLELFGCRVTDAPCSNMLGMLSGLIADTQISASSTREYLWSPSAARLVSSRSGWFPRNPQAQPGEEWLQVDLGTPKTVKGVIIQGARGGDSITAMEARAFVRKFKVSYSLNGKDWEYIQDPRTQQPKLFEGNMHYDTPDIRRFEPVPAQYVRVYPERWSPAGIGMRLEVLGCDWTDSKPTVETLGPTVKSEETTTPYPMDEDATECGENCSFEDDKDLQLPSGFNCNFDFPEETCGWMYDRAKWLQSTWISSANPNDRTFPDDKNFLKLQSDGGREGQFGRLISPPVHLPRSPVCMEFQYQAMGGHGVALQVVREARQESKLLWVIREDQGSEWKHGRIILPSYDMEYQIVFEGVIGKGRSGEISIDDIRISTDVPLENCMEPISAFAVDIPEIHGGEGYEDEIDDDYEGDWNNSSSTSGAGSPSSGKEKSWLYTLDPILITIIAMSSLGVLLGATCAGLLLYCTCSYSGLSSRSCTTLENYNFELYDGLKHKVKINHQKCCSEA
Kind of assay: SPR protein-protein interaction, rat NRP2 over immobilized protein. Type of assay: binding. The following applies: 50 nM rat NRP2 as analyte. As to the method:
as §1, §2

Assay [2] concerns the target T3, cell-expressed NRP2 (NRP2a-GFP fusion protein on HEK293T cells) (Homo sapiens, UniProt O60462).
T3 construct: host or cells: HEK293T
Nature of the assay: Immunofluorescence binding of Fc-HRS (2-60) to HEK293T cells overexpressing NRP2v2-GFP. To be noted: HEK293T cells overexpressing NRP2v2-GFP, GFP Bright cells. How it is done:
Reagents: • PE anti-human IgG Fc Antibody, clone HP6017, Biolegend cat 409304 • Mouse Anti-HRS monoclonal antibody (1-96) Clone 1C8, Abnova cat H00003035-M01 • Mouse IgG2a, Isotype control antibody (MOPC-173), Biolegend cat 400223 • Recombinant Human VEGF-C Protein, R&D Systems, cat 2179-VC-025/CF • Formaldehyde, 16%, methanol free, Ultra Pure, Polysciences, cat 18814-10 • Hoechst 33342, Trihydrochloride, Trihydrate, ThermoFisher Scientific, cat H1399 • Fc-HRS (2-60) was prepared as described in PCT application PCT/US2014/029699 • Gibco DMEM, High Glucose, ThermoFisher Scientific, cat 11965092 • PolyJet™ In Vitro DNA Transfection Reagent, SignaGen, cat SL100688 • Neuropilin 2 (NRP2) (NM_003872) Human ORF Clone, Origene, cat RG220706 • Collagen Coating Solution, Cell Applications Cat 125-100 • 1×PBS containing 1% BSA, 0.9 mM CaCl2 and 20 mM glucose • Binding buffer containing 1% normal mouse IgG (sigma cat 18765) and 2.5% (Human Fc Receptor Binding Inhibitor, ebioscience 14-9161-73).
Cell culture and transfection. […]
Immunofluorescence assays on cultured cells. Binding and quantitation of Fc-HRS (2-60) to cell-expressed NRP2 was achieved using immunofluorescence microscopy. […] The Hoechst stain was replaced with 1×PBS and subsequently read on an IN Cell Analyzer 2200. 20× images were acquired and analyzed using In Cell Analyzer 1000 Workstation software. […]

Another assay concerns the target T4, mouse NRP2 (Mus musculus, UniProt O35375).
T4 construct: Fc (C); purchased R&D Systems 7988-N2
Nature of the assay: SPR protein-protein interaction, mouse NRP2 over immobilized protein. Type of assay: binding. The following applies: 50 nM mouse NRP2 as analyte. How it is done: as §1, §2

Assay [3] concerns the target T1, NRP2. Nature of the assay: SPR binding of known ligands to NRP2. The following applies: known NRP2 ligands. As to the method:
as §1
(§3) A subset of the known ligands of NRP2 appears to compete binding of Fc-HRS(2-60) to NRP2.
For orientation: Surface plasmon resonance follows binding to a sensor surface in real time, without labels.

The target of assay [4] is T5, NRP2:Fc-HRS(2-60) interaction (Homo sapiens, UniProt O60462).
T5 construct: Fc (C); purchased R&D Systems 2215-N2
Kind of assay: SPR competition of known NRP2 ligands with the NRP2:Fc-HRS(2-60) interaction. Type of assay: binding. How it is done:
as §1, §2, §3

“Also recorded” adds a separate entry of the source.

T4 sequence (O35375 21-931): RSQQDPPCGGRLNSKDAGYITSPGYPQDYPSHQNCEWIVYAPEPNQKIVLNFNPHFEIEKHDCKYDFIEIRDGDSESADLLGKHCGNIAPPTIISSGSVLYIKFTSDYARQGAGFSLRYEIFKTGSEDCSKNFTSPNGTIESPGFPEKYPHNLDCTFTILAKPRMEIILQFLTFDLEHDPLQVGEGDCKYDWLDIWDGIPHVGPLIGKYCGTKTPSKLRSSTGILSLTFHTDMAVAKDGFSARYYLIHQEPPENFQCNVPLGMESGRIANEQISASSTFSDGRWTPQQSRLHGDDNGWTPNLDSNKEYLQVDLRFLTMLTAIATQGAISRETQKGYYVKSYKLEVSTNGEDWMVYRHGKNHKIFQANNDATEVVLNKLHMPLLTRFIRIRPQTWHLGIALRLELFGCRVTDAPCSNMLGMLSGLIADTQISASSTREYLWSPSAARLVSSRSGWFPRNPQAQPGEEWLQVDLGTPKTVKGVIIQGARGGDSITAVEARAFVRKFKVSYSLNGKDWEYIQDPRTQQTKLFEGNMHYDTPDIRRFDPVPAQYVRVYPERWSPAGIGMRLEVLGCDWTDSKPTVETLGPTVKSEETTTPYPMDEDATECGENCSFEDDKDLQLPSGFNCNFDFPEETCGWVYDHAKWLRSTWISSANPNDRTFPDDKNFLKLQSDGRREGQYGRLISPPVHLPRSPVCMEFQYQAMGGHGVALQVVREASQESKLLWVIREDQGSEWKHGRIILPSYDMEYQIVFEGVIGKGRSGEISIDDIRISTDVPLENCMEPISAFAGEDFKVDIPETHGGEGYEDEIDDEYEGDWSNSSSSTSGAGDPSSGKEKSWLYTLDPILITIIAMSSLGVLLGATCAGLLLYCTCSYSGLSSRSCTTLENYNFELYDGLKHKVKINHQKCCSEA

Turning to “Fc-HRS(2-11): truncated form of Fc-HRS(2-60) with a 49 amino acid deletion at the C-terminus, deleting the majority of the WHEP domain”, in the assay with NRP2 [1], the “binding of human NRP2 to immobilized protein (SPR)” value is “not a truncated form of Fc-HRS(2-11); also recorded: none of these NRP2 forms bind”. Moreover, the “binding of rat NRP2 to immobilized protein (SPR)” value in the assay with rat NRP2 is listed as “not a truncated form of Fc-HRS(2-11); also recorded: none of these NRP2 forms bind”. In addition, the “binding to cell-expressed NRP2a (staining intensity of anti-Fc-PE complex)” value in assay [2] is listed as “negligible specific binding”. In the assay with mouse NRP2, the “binding of mouse NRP2 to immobilized protein (SPR)” value is recorded as “not a truncated form of Fc-HRS(2-11); also recorded: none of these NRP2 forms bind”.
With “VEGF-A165: commercial protein (Peprotech #100-20) [reference compound]”, in the assay with NRP2 [3], the “Binding to NRP2 observed by SPR” value is “Yes”. The “effect of ligand on binding of NRP2 to Fc-HRS(2-60) (SPR)” value in assay [4] (NRP2 in the presence of the ligand over immobilized Fc-HRS(2-60)) is reported as “reduced or ablated”. Besides, the “Competes with Fc-HRS(2-60) for NRP2 binding” value in assay [4] (SPR, NRP2 binding to immobilized Fc-HRS(2-60) in presence of ligand) was “Yes”.

The values above are taken from patent US20230039401A1, “COMPOSITIONS AND METHODS FOR TREATING NRP2-ASSOCIATED DISEASES” (aTyr Pharma, Inc., priority 2018, published 2023).
